Experimental findings from paper PMC10786891, “Massively parallel profiling of RNA-targeting CRISPR-Cas13d” are described below.

The labels stand for the following.
B1: target 1 A1U,C4A (mixed)
RNA 1: CACCCGUGCAAAAAUGCAGGGGUCUAAAACUGAGCGGAUAACCUCUCUAUGG
RNA 2: GGGAAUGGAUCCACAUCUACGAAUUCGUACCAUAGAGAGGUUAUCCGAUCUCCGAGAUCGGAAGAGCACACGU
B2: target 1 U3G,A14G (mixed)
RNA 1: CACCCGUGCAAAAAUGCAGGGGUCUAAAACUGAGCGGAUAACCUCUCUAUGG
RNA 2: GGGAAUGGAUCCACAUCUACGAAUUCGUACCAUAGAGGGGUUAUCCGCGCACCGAGAUCGGAAGAGCACACGU
B3: target 1 A1C,A20C (mixed)
RNA 1: CACCCGUGCAAAAAUGCAGGGGUCUAAAACUGAGCGGAUAACCUCUCUAUGG
RNA 2: GGGAAUGGAUCCACAUCUACGAAUUCGUACCCUAGAGAGGUUAUCCGCUCCCCGAGAUCGGAAGAGCACACGU
B4: target 1 G5C,G17A (mixed)
RNA 1: CACCCGUGCAAAAAUGCAGGGGUCUAAAACUGAGCGGAUAACCUCUCUAUGG
RNA 2: GGGAAUGGAUCCACAUCUACGAAUUCGUACCAUAAAGAGGUUAUCCCCUCACCGAGAUCGGAAGAGCACACGU
B5: target 1 G5C,C6G (mixed)
RNA 1: CACCCGUGCAAAAAUGCAGGGGUCUAAAACUGAGCGGAUAACCUCUCUAUGG
RNA 2: GGGAAUGGAUCCACAUCUACGAAUUCGUACCAUAGAGAGGUUAUCGCCUCACCGAGAUCGGAAGAGCACACGU
B6: target 1 insC 3' of 14,insG 3' of 14 (mixed)
RNA 1: CACCCGUGCAAAAAUGCAGGGGUCUAAAACUGAGCGGAUAACCUCUCUAUGG
RNA 2: GGGAAUGGAUCCACAUCUACGAAUUCGUACCAUAGAGACGGGUUAUCCGCUCACCGAGAUCGGAAGAGCACACGU
B7: target 1 C6A,G17A (mixed)
RNA 1: CACCCGUGCAAAAAUGCAGGGGUCUAAAACUGAGCGGAUAACCUCUCUAUGG
RNA 2: GGGAAUGGAUCCACAUCUACGAAUUCGUACCAUAAAGAGGUUAUCAGCUCACCGAGAUCGGAAGAGCACACGU
B8: target 1 C7A,C22G (mixed)
RNA 1: CACCCGUGCAAAAAUGCAGGGGUCUAAAACUGAGCGGAUAACCUCUCUAUGG
RNA 2: GGGAAUGGAUCCACAUCUACGAAUUCGUAGCAUAGAGAGGUUAUACGCUCACCGAGAUCGGAAGAGCACACGU
B9: target 1 U3G,A20U (mixed)
RNA 1: CACCCGUGCAAAAAUGCAGGGGUCUAAAACUGAGCGGAUAACCUCUCUAUGG
RNA 2: GGGAAUGGAUCCACAUCUACGAAUUCGUACCUUAGAGAGGUUAUCCGCGCACCGAGAUCGGAAGAGCACACGU
B10: target 1 insU 3' of 9,insU 3' of 2 (mixed)
RNA 1: CACCCGUGCAAAAAUGCAGGGGUCUAAAACUGAGCGGAUAACCUCUCUAUGG
RNA 2: GGGAAUGGAUCCACAUCUACGAAUUCGUACCAUAGAGAGGUUAUUCCGCUCUACCGAGAUCGGAAGAGCACACGU
B11: target 1 C2A,G13U (mixed)
RNA 1: CACCCGUGCAAAAAUGCAGGGGUCUAAAACUGAGCGGAUAACCUCUCUAUGG
RNA 2: GGGAAUGGAUCCACAUCUACGAAUUCGUACCAUAGAGAUGUUAUCCGCUAACCGAGAUCGGAAGAGCACACGU
B12: target 1 C2U,A20C (mixed)
RNA 1: CACCCGUGCAAAAAUGCAGGGGUCUAAAACUGAGCGGAUAACCUCUCUAUGG
RNA 2: GGGAAUGGAUCCACAUCUACGAAUUCGUACCCUAGAGAGGUUAUCCGCUUACCGAGAUCGGAAGAGCACACGU
B13: target 1 insG 3' of 8,insC 3' of 3 (mixed)
RNA 1: CACCCGUGCAAAAAUGCAGGGGUCUAAAACUGAGCGGAUAACCUCUCUAUGG
RNA 2: GGGAAUGGAUCCACAUCUACGAAUUCGUACCAUAGAGAGGUUAUGCCGCUCCACCGAGAUCGGAAGAGCACACGU
B14: target 1 insC 3' of 18,insU 3' of 5 (mixed)
RNA 1: CACCCGUGCAAAAAUGCAGGGGUCUAAAACUGAGCGGAUAACCUCUCUAUGG
RNA 2: GGGAAUGGAUCCACAUCUACGAAUUCGUACCAUACGAGAGGUUAUCCGUCUCACCGAGAUCGGAAGAGCACACGU
B15: target 1 insU 3' of 18,insC 3' of 15 (mixed)
RNA 1: CACCCGUGCAAAAAUGCAGGGGUCUAAAACUGAGCGGAUAACCUCUCUAUGG
RNA 2: GGGAAUGGAUCCACAUCUACGAAUUCGUACCAUAUGAGCAGGUUAUCCGCUCACCGAGAUCGGAAGAGCACACGU
B16: target 1 insU 3' of 13,insC 3' of 8 (mixed)
RNA 1: CACCCGUGCAAAAAUGCAGGGGUCUAAAACUGAGCGGAUAACCUCUCUAUGG
RNA 2: GGGAAUGGAUCCACAUCUACGAAUUCGUACCAUAGAGAGUGUUAUCCCGCUCACCGAGAUCGGAAGAGCACACGU
B17: target 1 A1G,A18C (mixed)
RNA 1: CACCCGUGCAAAAAUGCAGGGGUCUAAAACUGAGCGGAUAACCUCUCUAUGG
RNA 2: GGGAAUGGAUCCACAUCUACGAAUUCGUACCAUCGAGAGGUUAUCCGCUCGCCGAGAUCGGAAGAGCACACGU
B18: target 1 C4G,A9G (mixed)
RNA 1: CACCCGUGCAAAAAUGCAGGGGUCUAAAACUGAGCGGAUAACCUCUCUAUGG
RNA 2: GGGAAUGGAUCCACAUCUACGAAUUCGUACCAUAGAGAGGUUGUCCGGUCACCGAGAUCGGAAGAGCACACGU
B19: target 1 A16G,C21U (mixed)
RNA 1: CACCCGUGCAAAAAUGCAGGGGUCUAAAACUGAGCGGAUAACCUCUCUAUGG
RNA 2: GGGAAUGGAUCCACAUCUACGAAUUCGUACUAUAGGGAGGUUAUCCGCUCACCGAGAUCGGAAGAGCACACGU
B20: target 1 insA 3' of 7,insG 3' of 1 (mixed)
RNA 1: CACCCGUGCAAAAAUGCAGGGGUCUAAAACUGAGCGGAUAACCUCUCUAUGG
RNA 2: GGGAAUGGAUCCACAUCUACGAAUUCGUACCAUAGAGAGGUUAUCACGCUCAGCCGAGAUCGGAAGAGCACACGU
B21: target 1 insU 3' of 17,insC 3' of 16 (mixed)
RNA 1: CACCCGUGCAAAAAUGCAGGGGUCUAAAACUGAGCGGAUAACCUCUCUAUGG
RNA 2: GGGAAUGGAUCCACAUCUACGAAUUCGUACCAUAGUACGAGGUUAUCCGCUCACCGAGAUCGGAAGAGCACACGU
B22: target 1 C7G,A16G (mixed)
RNA 1: CACCCGUGCAAAAAUGCAGGGGUCUAAAACUGAGCGGAUAACCUCUCUAUGG
RNA 2: GGGAAUGGAUCCACAUCUACGAAUUCGUACCAUAGGGAGGUUAUGCGCUCACCGAGAUCGGAAGAGCACACGU
B23: target 1 C7U,G12U (mixed)
RNA 1: CACCCGUGCAAAAAUGCAGGGGUCUAAAACUGAGCGGAUAACCUCUCUAUGG
RNA 2: GGGAAUGGAUCCACAUCUACGAAUUCGUACCAUAGAGAGUUUAUUCGCUCACCGAGAUCGGAAGAGCACACGU

The data set deals with T1, EsCas13d, nuclease-dead (Eubacterium siraeum, UniProt B0MS50, R295A;H300A;R849A;H854A).
T1 sequence: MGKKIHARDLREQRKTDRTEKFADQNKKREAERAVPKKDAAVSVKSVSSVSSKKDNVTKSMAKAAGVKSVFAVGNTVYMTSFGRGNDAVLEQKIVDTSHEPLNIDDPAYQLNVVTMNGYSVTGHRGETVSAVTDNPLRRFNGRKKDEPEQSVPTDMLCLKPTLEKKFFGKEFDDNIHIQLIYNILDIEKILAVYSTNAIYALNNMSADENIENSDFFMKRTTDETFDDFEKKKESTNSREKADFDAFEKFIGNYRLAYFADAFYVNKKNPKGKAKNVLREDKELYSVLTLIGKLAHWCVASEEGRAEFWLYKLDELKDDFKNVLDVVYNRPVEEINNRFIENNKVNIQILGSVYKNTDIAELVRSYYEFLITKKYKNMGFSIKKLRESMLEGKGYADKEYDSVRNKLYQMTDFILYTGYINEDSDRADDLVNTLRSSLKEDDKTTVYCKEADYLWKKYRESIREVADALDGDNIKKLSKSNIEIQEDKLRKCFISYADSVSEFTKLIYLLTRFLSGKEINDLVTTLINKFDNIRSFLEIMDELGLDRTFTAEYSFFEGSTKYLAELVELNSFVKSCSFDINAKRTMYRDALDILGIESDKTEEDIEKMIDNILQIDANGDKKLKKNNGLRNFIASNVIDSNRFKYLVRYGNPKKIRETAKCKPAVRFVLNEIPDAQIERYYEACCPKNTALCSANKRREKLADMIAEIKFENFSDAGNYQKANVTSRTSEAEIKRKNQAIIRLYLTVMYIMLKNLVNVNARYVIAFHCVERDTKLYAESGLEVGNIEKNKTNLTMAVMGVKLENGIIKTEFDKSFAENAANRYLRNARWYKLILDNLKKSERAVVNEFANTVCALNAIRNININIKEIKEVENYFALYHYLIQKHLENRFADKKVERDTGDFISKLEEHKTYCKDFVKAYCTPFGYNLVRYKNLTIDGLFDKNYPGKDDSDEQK
The data set is described as follows: crRNA (strand 1, pre-loaded); Mg2+; 40 mM Tris-HCl pH 7.5, 150 mM NaCl, 6 mM MgCl2, 1 mM DTT, 0.1% Tween-20, 0.2 mg/ml BSA; 25 C; 10 min per concentration, then washed. The note with it: tags: His6-TwinStrep-SUMO cleaved; N-terminal SNAP kept (SNAP-Surface 488); label: 3' end held by stalled T7 RNA polymerase.
Take B1: the Kd is 5.92 ± 0.27 nM.
With B2 the figure was 12.9 ± 1.2 nM; with B3, 32 ± 4 nM.
With B4 the figure was 79 ± 28 nM; with B5, 10.9 ± 0.6 nM; with B6, 50 ± 6 nM.
The value for B7 was 37.8 ± 2.4 nM; that for B8 was 41 ± 6 nM.
For B9, the equilibrium dissociation constant (Kd) turned out to be 38 ± 4 nM.
The value for B10 was 20.2 ± 1 nM.
B11: the Kd was determined as 49 ± 8 nM.
B12: binding was put at a Kd of 31.4 ± 1.6 nM.
With B13 the figure was 12.7 ± 0.6 nM; with B14, 84 ± 31 nM; with B15, 49 ± 5 nM.
With B16 the figure was 14.7 ± 1.6 nM; with B17, 62 ± 8 nM; with B18, 3.9 ± 0.34 nM.
On to B19, for which the Kd worked out at 7.65 ± 0.33 nM.
The value for B20 was 6.8 ± 0.4 nM; that for B21 was 91 ± 20 nM.
The value for B22 was 34 ± 4 nM; that for B23 was 13.4 ± 1.1 nM.

As usually defined, the Kd is the free concentration of one partner at which half of the binding sites on the other are occupied at equilibrium, for simple one-to-one binding. Read a low Kd as tighter binding.
